Measured values as given in article PMC9717613.

Tests used:
purified protein [1] = substrate: Nc1c(O)cccc1C(=O)CC(N)C(=O)O; assay: purified protein; details: HsKYNase_66; racemic substrate; in D2O-PBS (H2O value only in Figure 1f)
purified protein [2] = substrate: Nc1ccccc1C(=O)C[C@H](N)C(=O)O; assay: purified protein; type: biochemical, Homo sapiens; details: 0-2 mM substrate, 0.10-1.00 uM enzyme

B1: HsKYNase (human kynureninase) (Homo sapiens; … (protein)
chain: MEPSSLELPADTVQRIAAELKCHPTDERVALHLDEEDKLRHFRECFYIPKIQDLPPVDLSLVNKDEDAIYFNGNSLGLQPKMVKTYLEEELDKWAKIAIYGWFEGDSPWIHYDESIVGLMKDIVGANEKEIVLMNTLTVNLHLLMLSFFKPTPKRYKILLEAKAFPSDHYAIESQLQLHGLNIEESMRIIKPREGEETLRIEDILEVIEKEGDSIAVILFSGIHYYTGQHFNIPAITKAGQAKGCYVGFDLAHAVGNVELYLHDWGVDFACWCGYKYLNSSPGGIAGAFIHEKHAHTIKPALVGWFGHELSTRFKMDNKLQLIPGVCGFRCSTPPILLVCILHASLEIFKQATMKALRKKSVLLTGYLEYLIKHNYGKDKAATKKPVVNIITPSHVEERGCQLTLTFNVPNKDVFQELEKRGVVCDKRNPNGIRVAPVPLYNSFHDVYKFTNLLTSILDSAETKN
Purified protein [1]
  Km: 1.37 ± 0.2 mM
Purified protein [2]; HsKYNase_66
  Km: 0.027 mM
  kcat: 1.54 s⁻¹
  kcat/Km: 56000 M⁻¹ s⁻¹

B2: HsKYNase (human kynureninase) (Homo sapiens; … (protein)
chain: MEPSSLELPADTVQRIAAELKCHPTDERVALHLDEEDKLRHFRECFYIPKIQDLPPVDLSLVNKDEDTIYFNGNSLGLQPKMVKTYLEEELDKWAKIAIYGWFEGDSPWLHYDESIVGLMKDIVGANEKEIALMNTLTVNLHLLMLSFFKPTPKRYKILLEAKAFPSDHYAIESQLQLHGLNIEESMRIIKPREGEETLRIEDILEVIEKEGDSIAVILFSGVHYYTGQHFNIPAITKAGQAKGCYVGFDLAHAVGNVELYLHDWGVDFACWCNYKYLNSSPGGIAGAFIHEKHAHTIKPALVGWWGHELSTRFKMDNKLQLIPGVCGFRCSTPPILLVCILHASLEIFKQATMKALRKKSVLLTGYLEYLIKHNYGKDKAATKKPVVNIITPSHVEERGCQLTLTFNVPNKDVFQELEKRGVVCDKRNPNGIRVAPVPLYNSFHDVYKFTNLLTSILDSAETKN
Purified protein [2]; HsKYNase_95
  Km: 0.016 mM
  kcat: 0.85 s⁻¹
  kcat/Km: 55000 M⁻¹ s⁻¹

B3: HsKYNase (human kynureninase) (Homo sapiens; A136T/A99I/E103F/F225Y/H102W/I110M/I331C/I405L/K106E/L72N/M189I/N333T/N67D/R107S/S274G/S341I/S408N/V104E) (protein)
chain: MEPSSLELPADTVQRIAAELKCHPTDERVALHLDEEDKLRHFRECFYIPKIQDLPPVDLSLVNKDEDAIYFNGNSLGLQPKMVKTYLEEELDKWAKIAIYGWFEGESPWMTGDESIVGLMKDIVGANEKEIALMNTLTVNLHLLMLSFFKPTPKRYKILLEAKAFPSDHYAIESQLQLHGLNIEESMRIIKPREGEETLRIEDILEVIEKEGDSIAVILFSGVHYYTGQHFNIPAITKAGQAKGCYVGFDLAHAVGNVELYLHDWGVDFACWCGYKYLNAGAGGIAGAFIHEKHAHTIKPALVGWFGHELSTRFKMDNKLQLIPGVCGFRCSTPPILLVCILHASLEIFKQATMKALRKKSVLLTGYLEYLIKHNYGKDKAATKKPVVNIITPSHVEERGCQLTLTFNVPNKDVFQELEKRGVVCDKRNPNGIRVAPVPLYNSFHDVYKFTNLLTSILDSAETKN
Purified protein [2]; HsKYNase_64
  Km: 0.036 mM
  kcat: 0.24 s⁻¹
  kcat/Km: 6700 M⁻¹ s⁻¹

B4: HsKYNase (human kynureninase) (Homo sapiens) (protein)
chain: MEPSSLELPADTVQRIAAELKCHPTDERVALHLDEEDKLRHFRECFYIPKIQDLPPVDLSLVNKDENAIYFLGNSLGLQPKMVKTYLEEELDKWAKIAAYGHEVGKRPWITGDESIVGLMKDIVGANEKEIALMNALTVNLHLLMLSFFKPTPKRYKILLEAKAFPSDHYAIESQLQLHGLNIEESMRMIKPREGEETLRIEDILEVIEKEGDSIAVILFSGVHFYTGQHFNIPAITKAGQAKGCYVGFDLAHAVGNVELYLHDWGVDFACWCSYKYLNAGAGGIAGAFIHEKHAHTIKPALVGWFGHELSTRFKMDNKLQLIPGVCGFRISNPPILLVCSLHASLEIFKQATMKALRKKSVLLTGYLEYLIKHNYGKDKAATKKPVVNIITPSHVEERGCQLTITFSVPNKDVFQELEKRGVVCDKRNPNGIRVAPVPLYNSFHDVYKFTNLLTSILDSAETKN
Purified protein [2]
  Km: 1.57 mM
  kcat: 0.18 s⁻¹
  kcat/Km: 110 M⁻¹ s⁻¹

B5: HsKYNase (human kynureninase) (Homo sapiens; E103Q/F225Y/I331V/I405L/L72N/M189I/N67D/S274G/S408N) (protein)
chain: MEPSSLELPADTVQRIAAELKCHPTDERVALHLDEEDKLRHFRECFYIPKIQDLPPVDLSLVNKDEDAIYFNGNSLGLQPKMVKTYLEEELDKWAKIAAYGHQVGKRPWITGDESIVGLMKDIVGANEKEIALMNALTVNLHLLMLSFFKPTPKRYKILLEAKAFPSDHYAIESQLQLHGLNIEESMRIIKPREGEETLRIEDILEVIEKEGDSIAVILFSGVHYYTGQHFNIPAITKAGQAKGCYVGFDLAHAVGNVELYLHDWGVDFACWCGYKYLNAGAGGIAGAFIHEKHAHTIKPALVGWFGHELSTRFKMDNKLQLIPGVCGFRVSNPPILLVCSLHASLEIFKQATMKALRKKSVLLTGYLEYLIKHNYGKDKAATKKPVVNIITPSHVEERGCQLTLTFNVPNKDVFQELEKRGVVCDKRNPNGIRVAPVPLYNSFHDVYKFTNLLTSILDSAETKN
Purified protein [2]; HsKYNase_46
  Km: 0.19 mM
  kcat: 0.58 s⁻¹
  kcat/Km: 3100 M⁻¹ s⁻¹
